For assay [1], the target named is tetherin Y6,8A (stably expressed in 293T/tetherin Y6,8A cells) (UniProt Q10589). Briefly: co-immunoprecipitation (anti-tetherin IP, Western blot, LiCor quantitative imager). The settings on record: MOI of 2, 48 h post infection.
Assay [2] deals with Vpu of wildtype HIV-1 NL4.3 (expressed from the virus). Described as above. The following applies: 293T/tetherin Y6,8A cells, MOI of 2, 48 h post infection, read off a plot.

With “Vpu of wildtype HIV-1 NL4.3 (expressed from the virus) E59A; L63A; V64A”, the response (ratio Vpu/tetherin band intensity in IP) in assay [1] (UBAP1 siRNA, parent: est. 1.3, read off a plot) was 0.9; in assay [1] (control siRNA, parent: est. 1.6, read off a plot), 0.5.

For “human tetherin (stably expressed in 293T/tetherin cells) (from UniProt Q10589) Y6A; Y8A”, the results for the response (ratio Vpu/tetherin band intensity in IP) in assay [2] (UBAP1 siRNA) and in assay [2] (control siRNA) were 1.3 and 1.6, respectively.

(Values after paper PMC3315493.)
